Assay results published in the supplement of paper PMC9170038.

System: MS2 coat protein
Assay: apparent KD of MS2 coat protein; designed switch direction (-1 OFF switch, 1 ON switch): 1; higher = weaker reporter binding
Outline: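 RNA switches sharing common flanks were transcribed by stalled E. coli RNA polymerase on Illumina chips. A doubling series of SNAP-549-labelled MS2 coat protein, from 0.7 or 1.5 nM to 3 µM, was applied in Tris-HCl pH 7.5 buffer with KCl, MgCl2, BSA, DTT, tRNA and Tween-20. Each step lasted 0.8–1.5 h at the bottom of the series and 10–20 min at the top. Normalised cluster fluorescence was curve-fitted, giving apparent KD as the per-design median over clusters.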

[1] = input ligand: microRNA oligo, concentration not stated
[2] = Eterna round: R95, input ligand: FMN 200 uM
[3] = Eterna round: R95, input ligand: microRNA oligo, concentration not stated
[4] = Eterna round: R95, input ligand: none

Row | Sequence | apparent KD of MS2 coat protein (input ligand: FMN 200 uM) | apparent KD of MS2 coat protein [1] | apparent KD of MS2 coat protein (input ligand: none) | apparent KD of MS2 coat protein [2] | apparent KD of MS2 coat protein [3] | apparent KD of MS2 coat protein [4]
1 | GUUACAUGAGGAUCACCCAUGUAUGUGUGGGAGUAAGUGUCUUAGGAUAUCUAGUAUUUUAUUUAAGAGAAGGAAGAUUGUUGU [JMF's solution 59] (Eterna round: R96, puzzle: Same State NG 3) | 130 nM | 93.7 nM | 112 nM | – | – | –
2 | GUUACAUGAGGAUCACCCAUGUGUGUGUGGGAGUGAGUGGCUUAGGAUAUCUAUGAUUUUAGUUAAGAGAAGGGAGAUUGUUGU [SS-NG3-LRO05] (Eterna round: R96, puzzle: Same State NG 3) | 554 nM | 276 nM | 328 nM | – | – | –
3 | GUUAUACAUGAGGAUCACCCAUGUCAAUGUAGUCGAGGAUAUGGGCAGCUAUGAGGCGUACUAGAAGGCGAGAAGU [Mat - Same State 1 - Mod of JL - D15] (puzzle: Same State 1) | – | – | – | 125 nM | 268 nM | 437 nM
4 | UAAAAACAUGAGGAUCACCCAUGUGAAAAUAUGGGAGGAUAUACAAAGACGAGAGUCAAAGUAGAAGGCCUAAAAU [Mat - Same State 1 - Eli mod - D88] (Eterna round: R96, puzzle: Same State 1) | 21.9 nM | 68.3 nM | 86.6 nM | – | – | –
5 | UAACAGUACAAUUUAGAUCUACAUGAGGAUCACCCAUGUACUGAGGAUAUCAGCUCGUUUAGAGCUGAGAAGGCAGAAGAACUA [SSNG3/11-A3] (Eterna round: R96, puzzle: Same State NG 3) | 39.7 nM | 154 nM | 218 nM | – | – | –
6 | UACAAUCUAUCUCAGGAUAUCAUGUCAAAGACAUGAGGAUCACCCAUGUACCAGGAAACUGGUUAUGAGAAGGGAGAUAGAUUGA [Mat - Same State 2 - Mod - D25] (puzzle: Same State 2) | – | – | – | 119 nM | 59.1 nM | 390 nM
7 | UACAAUCUAUCUCAGGAUAUCAUGUCAAAGACAUGAGGAUCACCCAUGUACCAGGAAACUGGUUAUGAGAAGGGAGAUAGAUUGU [Mat - Same State 2 - Mod - D24] (puzzle: Same State 2) | – | – | – | 136 nM | 35.4 nM | 77.9 nM
8 | UACAAUCUAUCUGAGGAUAUCAUGAAUUAAACAUGAGGAUCACCCAUGUGCAGGAAAACUGCAUAUGAGAAGGCAGAUAGAUUGU [salish99_ss2_r3_060] (puzzle: Same State 2) | – | – | – | 52.9 nM | 2.45 nM | 804 nM
9 | UACCAACAUAUAGAACAAGCGUGCUCGUCACAUGAGGAUCACCCAUGUCUAAACGCUGUACCUACAUCCUCAGCGCC [Eddiso] (puzzle: Sensor for hsa-mir-208a) | – | – | – | 23.3 nM | 24.6 nM | 22.8 nM
10 | UACCGCGCAGAUGCGCAACAUGAGGAUCACCCAUGUGGCACACAGGAUAUCCUGAACAGCUAUUAGGAGAAGGGUGAAGGCCUC [Sotetelequ] (Eterna round: R96, puzzle: Same State NG 3) | 128 nM | 75.3 nM | 78.3 nM | – | – | –
11 | UAGAAACAUGAGGAUCACCCAUGUGGGUUAAACACAGGAUAUCACGCCAAAAGAAAAGCGUGAGAAGGGUGACCGA [Xeusisus] (Eterna round: R96, puzzle: Same State 1) | 254 nM | 696 nM | 107 nM | – | – | –
12 | UAGAAACAUGAGGAUCACCCAUGUGGGUUAAACACAGGAUAUCACGCCAAAAGAAAAGCGUGAGAAGGGUGACCGA [Xeusisus] (puzzle: Same State 1) | – | – | – | 166 nM | 71.2 nM | 161 nM
13 | UAGAGAGGAAGCGAGGAUAUCGUGGGAGGGACAUGAGGAUCACCCAUGUAGGAUGUUGAGAGGAACGAGAAGGCGCAGGAAAGAA [JR_SS2_Sub075] (puzzle: Same State 2) | – | – | – | 67.1 nM | 78.1 nM | 110 nM
